Reference: paper PMC8469703, “Arginine Methylation of hnRNPK Inhibits the DDX3-hnRNPK Interaction to Play an Anti-Apoptosis Role in Osteosarcoma Cells” (International Journal of Molecular Sciences, 2021)

Legend:
[1] = biological target: T1, GST-tagged full-length DDX3 (GST-DDX3^1–662) (human, UniProt O00571 1-662); assay: pull-down; bead-bound GST-DDX3 variants incubated with recombinant hnRNPK or the KI segment; binding buffer PBS with 0.5% NP-40, 0.25% sodium deoxycholate, 5% glycerol, protease inhibitors; 4 °C, 1 h; three washes; SDS-PAGE; conditions: both partners purified
T1 construct: Vector pGEX-5X-1

[2] = biological target: T2, GST-tagged C-terminal region of DDX3 (GST-DDX3^535–662) (human, UniProt O00571 535-662); assay: as above; conditions: both partners purified
T2 construct: Vector pGEX-5X-1; also called DDX3 C-terminus
T2 sequence (O00571 535-662): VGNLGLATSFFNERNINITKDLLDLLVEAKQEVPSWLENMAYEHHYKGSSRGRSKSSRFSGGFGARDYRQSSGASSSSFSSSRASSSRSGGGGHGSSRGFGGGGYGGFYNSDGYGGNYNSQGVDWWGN

T1 sequence (O00571 whole entry): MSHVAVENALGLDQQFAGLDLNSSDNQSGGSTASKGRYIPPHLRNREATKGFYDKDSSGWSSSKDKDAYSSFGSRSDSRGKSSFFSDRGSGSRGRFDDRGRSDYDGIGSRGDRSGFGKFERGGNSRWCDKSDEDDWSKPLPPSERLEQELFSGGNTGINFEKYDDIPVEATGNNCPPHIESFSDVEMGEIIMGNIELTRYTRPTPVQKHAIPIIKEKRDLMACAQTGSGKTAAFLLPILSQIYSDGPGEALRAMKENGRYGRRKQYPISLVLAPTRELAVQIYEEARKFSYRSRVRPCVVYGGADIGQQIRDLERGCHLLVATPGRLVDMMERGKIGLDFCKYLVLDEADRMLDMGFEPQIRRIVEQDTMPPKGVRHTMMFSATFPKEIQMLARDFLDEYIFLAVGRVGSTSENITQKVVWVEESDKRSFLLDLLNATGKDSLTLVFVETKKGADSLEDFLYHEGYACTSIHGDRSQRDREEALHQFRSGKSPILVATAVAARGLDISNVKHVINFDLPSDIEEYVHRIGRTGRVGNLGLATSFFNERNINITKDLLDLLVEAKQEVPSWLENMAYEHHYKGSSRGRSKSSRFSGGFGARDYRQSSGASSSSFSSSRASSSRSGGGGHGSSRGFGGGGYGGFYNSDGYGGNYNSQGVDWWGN

binding result [1]: binds | binding result [2]: binds
B1: His6-tagged Trx-KI (K-interactive region of hnRNPK, amino acids 240–336) (domain or fragment, UniProt P61978 240-336, looked up)
chain: TMMFDDRRGRPVGFPMRGRGGFDRMPPGRGGRPMPPSRRDYDDMSPRRGPPPPPPGRGGRGGSRARNLPLPPPPPPRGGDLMAYDRRGRPGDRYDGM
notes: also called his-KI; KI segment; source: E. coli BL21 DE3 pLysS, purified (Ni-NTA agarose, dialysis)
